{"source": "patent US20220034883A1", "about": "(SYSMEX, published 2022)", "binders": {"B1": {"name": "first antibody (monoclonal antibody purified from the culture supernatant of the hybridoma of Clone 1) (antibody, V domains shown)", "VH": "QVTLKESGPGILQPSQTLSLTCSFSGFSLSTSGTGVSWIRQPSGKGLEWLAHIYWDDDKRYNPSLKSRLTVSKDTSGNQVFLKITSVDTADTATYYCARSNYGYDLDYWGQGTTLTVSS", "VL": "DIVMTQSQKFMSTSVGDRVSVTCKASQNVGTNVVWYQQKPGQSPKALIYSASYRYSGVPDRFTGSGSGTDFTLTISNVQSEDLAEYFCQQYNNYPLTFGSGTKLEIKR", "notes": "also called capture antibody"}}, "biological_target": "T1, His-tagged recombinant N protein of SARS-CoV (SARS-CoV, UniProt P59595 1-422)", "T1 construct": "mature", "T1 sequence (P59595 1-422, tags left off)": "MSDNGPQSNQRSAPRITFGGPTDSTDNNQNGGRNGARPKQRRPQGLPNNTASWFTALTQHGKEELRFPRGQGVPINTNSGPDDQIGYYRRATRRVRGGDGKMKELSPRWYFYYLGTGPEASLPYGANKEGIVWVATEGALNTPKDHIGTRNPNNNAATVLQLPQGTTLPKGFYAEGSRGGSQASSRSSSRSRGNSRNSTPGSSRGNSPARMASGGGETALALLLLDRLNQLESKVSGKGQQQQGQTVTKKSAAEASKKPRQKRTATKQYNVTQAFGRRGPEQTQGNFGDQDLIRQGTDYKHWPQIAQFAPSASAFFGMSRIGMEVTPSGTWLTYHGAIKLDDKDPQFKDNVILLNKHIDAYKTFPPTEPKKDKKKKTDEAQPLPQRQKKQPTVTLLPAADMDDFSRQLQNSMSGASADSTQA", "assay": "ELISA screening of hybridomas", "data": [{"binder": "B1", "values": [{"measurement": "binding result", "value": "binds"}]}]}
